{
  "source": "patent US20240270857A1",
  "about": "(CHIA TAI TIANQING PHARMACEUTICAL GROUP, published 2024)",
  "binders": {"B1": {"name": "chimeric 6G10 antibody (antibody, human IgG4 S228P, kappa, V domains shown)", "VH": "EVMLVESGGGLVKPGGSLKLSCAASGITFSRFAMSWIRQTPEKRLEWVATISSGDMYTYYPDSVKGRFTISRDNANNTLYLQMRSLRSEDTAMYYCAIMITTGEHAYWGQGTLVTVSA", "VL": "EIKMTQSPSSLSASLGDTITITCRASQDISVWLTWYQQKPGNIPKLLIYKASNLHTGVPPRFSGSGSGTDFTFTISSLQPEDITTYYCLQSQSYPWTFGGGTKLEIKR", "notes": "Mouse variable regions on human IgG4 / kappa; also called xi6G10"}, "B2": {"name": "chimeric 58A8D1 antibody (antibody, human IgG4 S228P, kappa, V domains shown)", "VH": "EVQLQQLGSVLVRPGISVKLSCKASGYSFTSSWMHWTKQRPGQGLEWIGEIHPNSGNTNYNEKFKGKATLTVDTSSRTAYVDLSSLTSEDSAVYYCARSPYGYGGSMDYWGQGTSVTVSS", "VL": "DIQMTQTTSSLSASLGDRVTISCRASQDIHNYLNWYQQKPDGTVKLLIYYTSRLYSGVPSRFSGSGSGTDYSLTISNLEQEDFATYFCQQGNTLPVMFGSGTKLELKR", "notes": "Mouse variable regions on human IgG4 / kappa; also called xi58A8D1"}},
  "key": {"[1]": {"target": "T1, human IL-36R overexpressed on 293T-hIL36R-NFκB cells (human, UniProt Q9HB29 20-575)", "T1 sequence": "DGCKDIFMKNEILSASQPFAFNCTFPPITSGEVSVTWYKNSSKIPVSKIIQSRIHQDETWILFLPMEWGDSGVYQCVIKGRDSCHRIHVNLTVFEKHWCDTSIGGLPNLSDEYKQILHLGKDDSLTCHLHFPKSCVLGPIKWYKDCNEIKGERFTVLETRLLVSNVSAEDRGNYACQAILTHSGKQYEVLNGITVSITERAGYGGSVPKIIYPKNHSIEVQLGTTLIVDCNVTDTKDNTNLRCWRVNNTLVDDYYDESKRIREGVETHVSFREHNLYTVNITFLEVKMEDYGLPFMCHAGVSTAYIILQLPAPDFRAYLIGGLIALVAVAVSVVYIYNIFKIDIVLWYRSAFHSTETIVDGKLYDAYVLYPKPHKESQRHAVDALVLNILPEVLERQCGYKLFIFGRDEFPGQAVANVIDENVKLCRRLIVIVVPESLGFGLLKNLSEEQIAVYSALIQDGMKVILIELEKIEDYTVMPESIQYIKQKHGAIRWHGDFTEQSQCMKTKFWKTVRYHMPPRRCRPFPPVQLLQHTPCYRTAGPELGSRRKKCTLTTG", "experiment": "cell-based or functional assay"}, "[2]": {"target": "T2, IL-36R naturally expressed on OVCAR8 cells and on normal human epidermal keratinocytes (NHK cells) (human, UniProt Q9HB29 20-575)", "T2 sequence (looked up)": "T1 sequence", "experiment": "cell-based or functional assay"}, "[3]": {"target": "T2, IL-36R naturally expressed on OVCAR8 …", "experiment": "cell-based or functional assay", "remark": "listed apart in the source"}, "[4]": {"target": "T1, human IL-36R overexpressed on …", "experiment": "cell-based or functional assay", "remark": "listed apart in the source"}, "[5]": {"target": "T3, cynomolgus IL-36R overexpressed on 293T-CynoIL36R-NFκB cells (cynomolgus monkey)", "T3 construct": "Entry includes the signal peptide; also called monkey IL-36R", "T3 chain": "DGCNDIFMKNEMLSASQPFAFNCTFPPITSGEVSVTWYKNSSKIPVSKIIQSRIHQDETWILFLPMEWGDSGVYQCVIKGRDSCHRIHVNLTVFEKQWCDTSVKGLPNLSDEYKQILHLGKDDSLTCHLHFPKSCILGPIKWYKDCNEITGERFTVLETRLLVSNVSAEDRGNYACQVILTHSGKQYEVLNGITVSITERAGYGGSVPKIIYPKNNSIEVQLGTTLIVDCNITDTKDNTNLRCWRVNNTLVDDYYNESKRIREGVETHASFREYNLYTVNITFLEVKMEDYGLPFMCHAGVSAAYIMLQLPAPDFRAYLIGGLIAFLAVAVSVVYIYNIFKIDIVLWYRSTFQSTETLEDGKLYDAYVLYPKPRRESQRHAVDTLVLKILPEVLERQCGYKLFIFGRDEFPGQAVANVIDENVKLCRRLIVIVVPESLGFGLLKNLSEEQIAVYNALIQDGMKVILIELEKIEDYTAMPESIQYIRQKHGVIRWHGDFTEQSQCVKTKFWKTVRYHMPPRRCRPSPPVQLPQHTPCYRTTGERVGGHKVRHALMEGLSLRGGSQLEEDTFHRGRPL", "experiment": "FACS on 293T-CynoIL36R-NFκB cells, ratio of MFI to background MFI", "experimental": "After the cells was washed with PBS, the cells were resuspended with 100 μL of PBS and then the fluorescence signal was detected using a flow cytometer (BD, Accuri C6). […] The ratio was the ratio of mean fluorescence intensity (MFI) of the experimental group/the background MFI, and the resulting data were analyzed using GraphPad Prism."}, "[6]": {"target": "T2, IL-36R naturally expressed on OVCAR8 …", "experiment": "cell-based or functional assay", "remark": "listed apart in the source"}, "[7]": {"target": "T1, human IL-36R overexpressed on …", "experiment": "cell-based or functional assay", "remark": "listed apart in the source"}, "[8]": {"target": "T4, Human IL-1Rrp2/IL-1R6 protein, His Tag (ACROBiosystems, IL2-H52H6) (human, UniProt Q9HB29 20-335)", "T4 construct": "Bought protein; the soluble protein is likely only the extracellular part; also called hIL-36R; human IL36R antigen; not shown: His tag", "T4 sequence": "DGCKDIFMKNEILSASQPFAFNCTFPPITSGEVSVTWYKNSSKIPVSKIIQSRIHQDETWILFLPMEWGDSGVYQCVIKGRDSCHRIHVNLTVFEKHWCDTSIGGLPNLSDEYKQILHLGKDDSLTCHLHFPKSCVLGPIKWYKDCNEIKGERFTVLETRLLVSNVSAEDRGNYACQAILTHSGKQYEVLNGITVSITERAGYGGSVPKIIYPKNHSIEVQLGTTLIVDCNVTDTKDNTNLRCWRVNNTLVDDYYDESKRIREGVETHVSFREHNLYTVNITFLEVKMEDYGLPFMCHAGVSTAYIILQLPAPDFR", "experiment": "BLI (ForteBio Octet), antibody on ProA sensor, 1:1 model", "experimental": "The affinity of anti-IL-36R antibodies to CynoIL36R-ECD mFc and human IL-1Rrp2/IL-IR6 protein, His Tag (ACROBiosystems, IL2-H52H6) was measured by a ForteBio molecular interaction instrument. […] And then the biosensor was used to bind CynoIL36R-ECD mFc or human IL-1Rrp2/IL-1R6 protein, His Tag which was diluted by a gradient (the initial concentration was 200 nM, 2-fold gradient dilution), the response signals were detected in real time using a Fortebio molecular interaction instrument (SARTORIUS, octet red 96e), and association and dissociation curves were obtained. After the completion of dissociation in each cycle, the biosensor was regenerated for the next capture; the procedure was repeated until the affinity of the different anti-IL-36R antibodies for IL-36R was determined. The resulting data were analyzed by Fortebio Data Analysis 11.0 software in a 1:1 (Langmuir) binding model to determine kₐ (kₒₙ) and kd (koff) values, and the dissociation constant KD was calculated by KD=kd/kₐ. The detection method essentially followed the manufacturer's recommendations, and more information could be found at www.fortebio.com."}, "[9]": {"target": "T2, IL-36R naturally expressed on OVCAR8 …", "experiment": "cell-based or functional assay", "remark": "listed apart in the source"}, "[10]": {"target": "T2, IL-36R naturally expressed on OVCAR8 …", "experiment": "cell-based or functional assay", "remark": "listed apart in the source"}, "[11]": {"target": "T2, IL-36R naturally expressed on OVCAR8 …", "experiment": "cell-based or functional assay", "remark": "listed apart in the source"}},
  "data": [
    {"binder": "B1", "values": [
      {"measurement": "IC50; NFκB-luciferase reporter in 293T-hIL36R-NFκB cells stimulated with hIL36α, inhibition rate %", "setting": "[1]", "result": 2.77, "unit": "nM"},
      {"measurement": "IC50; IL-8 production of OVCAR8 cells stimulated with hIL36β, inhibition rate %", "setting": "[2]", "result": 0.182, "unit": "nM"},
      {"measurement": "IC50; IL-8 production of OVCAR8 cells stimulated with hIL36γ, inhibition rate %", "setting": "[3]", "result": 0.0727, "unit": "nM"},
      {"measurement": "IC50; NFκB-luciferase reporter in 293T-hIL36R-NFκB cells stimulated with hIL36β, inhibition rate %", "setting": "[4]", "result": 1.8, "unit": "nM"},
      {"measurement": "EC50", "setting": "[5]", "result": 3.49, "unit": "nM"},
      {"measurement": "IC50; IL-8 production of NHK cells stimulated with hIL36γ, inhibition rate %", "setting": "[6]", "result": 0.13, "unit": "nM"},
      {"measurement": "IC50; NFκB-luciferase reporter in 293T-hIL36R-NFκB cells stimulated with hIL36γ, inhibition rate %", "setting": "[7]", "result": "~40.2", "unit": "nM"},
      {"measurement": "Kd", "setting": "[8]", "result": 0.881, "unit": "nM"},
      {"measurement": "koff", "setting": "[8]", "result": "5.01e-05", "unit": "s⁻¹"},
      {"measurement": "kon", "setting": "[8]", "result": 56900, "unit": "M⁻¹ s⁻¹"},
      {"measurement": "IC50; IL-8 production of NHK cells stimulated with hIL36α, inhibition rate %", "setting": "[9]", "result": 0.555, "unit": "nM"},
      {"measurement": "IC50; IL-8 production of OVCAR8 cells stimulated with hIL36α, inhibition rate %", "setting": "[10]", "result": 0.0704, "unit": "nM"},
      {"measurement": "IC50; IL-8 production of NHK cells stimulated with hIL36β, inhibition rate %", "setting": "[11]", "result": 1.27, "unit": "nM"}
    ]},
    {"binder": "B2", "values": [
      {"measurement": "IC50; NFκB-luciferase reporter in 293T-hIL36R-NFκB cells stimulated with hIL36α, inhibition rate %", "setting": "[1]", "result": 16.4, "unit": "nM"},
      {"measurement": "IC50; IL-8 production of OVCAR8 cells stimulated with hIL36β, inhibition rate %", "setting": "[2]", "result": 0.415, "unit": "nM"},
      {"measurement": "IC50; IL-8 production of OVCAR8 cells stimulated with hIL36γ, inhibition rate %", "setting": "[3]", "result": 0.213, "unit": "nM"},
      {"measurement": "IC50; NFκB-luciferase reporter in 293T-hIL36R-NFκB cells stimulated with hIL36β, inhibition rate %", "setting": "[4]", "result": 9.77, "unit": "nM"},
      {"measurement": "EC50", "setting": "[5]", "result": 20.8, "unit": "nM"},
      {"measurement": "IC50; IL-8 production of NHK cells stimulated with hIL36γ, inhibition rate %", "setting": "[6]", "result": 0.0136, "unit": "nM"},
      {"measurement": "IC50; NFκB-luciferase reporter in 293T-hIL36R-NFκB cells stimulated with hIL36γ, inhibition rate %", "setting": "[7]", "result": "~40.8", "unit": "nM"},
      {"measurement": "Kd", "setting": "[8]", "result": 0.254, "unit": "nM"},
      {"measurement": "koff", "setting": "[8]", "result": "9.15e-06", "unit": "s⁻¹"},
      {"measurement": "kon", "setting": "[8]", "result": 36000, "unit": "M⁻¹ s⁻¹"},
      {"measurement": "IC50; IL-8 production of NHK cells stimulated with hIL36α, inhibition rate %", "setting": "[9]", "result": 0.0693, "unit": "nM"},
      {"measurement": "IC50; IL-8 production of OVCAR8 cells stimulated with hIL36α, inhibition rate %", "setting": "[10]", "result": 0.253, "unit": "nM"},
      {"measurement": "IC50; IL-8 production of NHK cells stimulated with hIL36β, inhibition rate %", "setting": "[11]", "result": 0.0791, "unit": "nM"}
    ]}
  ]
}
